# Measurements reported in patent US20240301068A1 (BEIJING HANMI PHARMACEUTICAL, published 2024).
# T1: recombinant human ICOS (Sino Biological Inc.) (human, UniProt Q9Y6W8 21-141)
# T1 sequence (looked up): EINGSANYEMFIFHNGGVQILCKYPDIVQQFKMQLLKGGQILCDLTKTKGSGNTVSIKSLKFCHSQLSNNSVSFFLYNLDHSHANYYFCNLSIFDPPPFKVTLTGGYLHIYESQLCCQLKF
# T2: recombinant human CD86 (Sino Biological Inc.) (human, UniProt P42081 24-247, limits assumed)
# T2 sequence (looked up): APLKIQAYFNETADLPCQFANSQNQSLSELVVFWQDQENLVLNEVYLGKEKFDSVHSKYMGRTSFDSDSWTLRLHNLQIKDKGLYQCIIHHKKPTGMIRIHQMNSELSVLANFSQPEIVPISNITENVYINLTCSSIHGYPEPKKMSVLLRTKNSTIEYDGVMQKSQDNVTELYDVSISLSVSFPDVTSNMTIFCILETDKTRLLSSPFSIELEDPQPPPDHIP
# T3: recombinant human B7-H2 (Sino Biological Inc.) (human, UniProt O75144 19-258, limits assumed)
# T3 sequence (looked up): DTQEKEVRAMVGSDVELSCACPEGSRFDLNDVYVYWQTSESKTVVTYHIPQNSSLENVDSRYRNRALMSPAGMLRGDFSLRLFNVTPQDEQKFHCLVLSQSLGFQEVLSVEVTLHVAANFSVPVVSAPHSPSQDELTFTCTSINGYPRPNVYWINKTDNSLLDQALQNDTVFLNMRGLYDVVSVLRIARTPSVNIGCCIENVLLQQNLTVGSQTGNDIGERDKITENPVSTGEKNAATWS
# Assays:
# [1] = target: recombinant human PD-L1 (Sino Biological Inc.) (human, UniProt Q9NZQ7 19-239); experiment: affinity determination (dissociation constant), method not stated
# Chain of recombinant human PD-L1 (Sino Biological Inc.) (Q9NZQ7 19-239 limits assumed): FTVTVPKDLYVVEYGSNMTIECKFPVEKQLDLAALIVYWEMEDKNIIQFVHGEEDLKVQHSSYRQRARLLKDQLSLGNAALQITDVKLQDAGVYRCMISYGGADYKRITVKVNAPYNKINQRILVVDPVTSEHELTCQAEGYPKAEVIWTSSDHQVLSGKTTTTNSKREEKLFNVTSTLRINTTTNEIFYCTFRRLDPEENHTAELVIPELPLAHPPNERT
# [2] = target: recombinant rat PD-L1 (Sino Biological Inc.) (rat, UniProt D4AE25 19-239); experiment: ELISA, plate coated with 1 ug/mL recombinant rat PD-L1, anti-human IgG-HRP, OD450
# Chain of recombinant rat PD-L1 (Sino Biological Inc.) (D4AE25 entry or part of it limits assumed): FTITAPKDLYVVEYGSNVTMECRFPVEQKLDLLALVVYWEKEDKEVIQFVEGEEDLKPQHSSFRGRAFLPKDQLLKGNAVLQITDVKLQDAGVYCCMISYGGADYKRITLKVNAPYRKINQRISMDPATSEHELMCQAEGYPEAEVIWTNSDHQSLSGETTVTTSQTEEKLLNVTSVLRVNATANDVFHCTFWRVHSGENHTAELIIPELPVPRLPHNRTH
# Description: (§1) A 96-well high-adsorption ELISA plate was coated with 1 μg/mL of the recombinant human PD-L1, cynomolgus PD-L1, rat PD-L1 and mouse PD-L1 (all purchased from Sino Biological Inc.), at 100 μL per well using carbonate buffer solution, pH=9.6 at 4° C. overnight. The plate was washed 5 times with PBST, and then blocked using PBST with 1% BSA, 300 μL/well, and incubated at 25° C. for 1 hour, and then washed 5 times with PBST. The chimeric anti-human PD-L1 antibody samples serially diluted in PBST with 1% BSA were added, 100 μL/well, incubated at 25° C. for 1 hour, and then washed 5 times with PBST. The horseradish peroxidase-labeled anti-human IgG antibody (Chemicon, catalog number AP309P) diluted 1:10000 in PBST with 1% BSA was then added, 100 μL per well, and incubated at 25° C. for 1 hour. The plate was washed 5 times with PBST. The colorimetric substrate TMB was added, 100 μL/well, and developed at room temperature for 10 minutes. 1M H₂SO₄ was added, 100 μL/well, to stop the development. The absorbance at 450 nm was read on a microplate reader.
# [3] = target: recombinant human BTLA (Sino Biological Inc.) (human, UniProt Q7Z6A9 31-157, limits assumed); experiment: ELISA, plate coated with 1 ug/mL recombinant human BTLA, anti-human IgG-HRP, OD450; antibody concentration not shown
# Description: (§2) The plate was washed 5 times with PBST, and then blocked using PBST with 1% BSA, 300 μL/well, and incubated at 25° C. for 1 hour, and then washed 5 times with PBST. […] The horseradish peroxidase-labeled anti-human IgG antibody (Chemicon, catalog number AP309P) diluted 1:10000 in PBST with 1% BSA was then added, 100 μL per well, and incubated at 25° C. for 1 hour. The plate was washed 5 times with PBST. The colorimetric substrate TMB was added, 100 μL/well, and developed at room temperature for 10 minutes. 1M H₂SO₄ was added, 100 μL/well, to stop the development. The absorbance at 450 nm was read on a microplate reader.
# [4] = target: T4, recombinant human PD-L1-Fc protein (human, UniProt Q9NZQ7 19-238, limits assumed); experiment: blocking ELISA, plate coated with 1 ug/mL human PD-L1-Fc; blocked ligand biotin-labelled PD-1-Fc at 20 nM final, streptavidin-HRP, OD450
# T4 construct: Prepared by Beijing Hanmi Pharmaceutical; The GenBank number is NP_001254635.1
# T4 sequence (Q9NZQ7 19-238 limits assumed): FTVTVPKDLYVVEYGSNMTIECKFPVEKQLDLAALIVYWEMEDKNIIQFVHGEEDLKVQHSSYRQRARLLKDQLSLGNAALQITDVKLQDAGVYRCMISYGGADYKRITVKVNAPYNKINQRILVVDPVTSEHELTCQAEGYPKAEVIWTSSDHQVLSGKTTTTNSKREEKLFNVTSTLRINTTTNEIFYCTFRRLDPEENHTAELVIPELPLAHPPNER
# Description: A 96-well high-adsorption ELISA plate was coated with 1 μg/mL of the recombinant human PD-L1-Fc at 100 μL per well using carbonate buffer solution, pH=9.6 at 4° C. overnight. The plate was washed 5 times with PBST, and then blocked using PBST with 1% BSA, 300 μL/well, and incubated at 25° C. for 1 hour, and then washed 5 times with PBST. […] The Streptavidin-HRP (BD Pharmingen, catalog number 554066) diluted 1:1000 in PBST with 1% BSA was then added, 100 μL per well, and incubated at 25° C. for 1 hour. The plate was washed 5 times with PBST. The colorimetric substrate TMB was added, 100 μL/well, and developed at room temperature for 10 minutes. 1M H₂SO₄ was added, 100 μL/well, to stop the development. The absorbance at 450 nm was read on a microplate reader.
# [5] = target: T1, recombinant human ICOS (Sino Biological …); experiment: ELISA, plate coated with 1 ug/mL recombinant human ICOS, anti-human IgG-HRP, OD450; antibody concentration not shown
# Description: as §2
# [6] = target: recombinant mouse PD-L1 (Sino Biological Inc.) (mouse, UniProt Q9EP73 19-238); experiment: ELISA, plate coated with 1 ug/mL recombinant mouse PD-L1, anti-human IgG-HRP, OD450
# Chain of recombinant mouse PD-L1 (Sino Biological Inc.) (Q9EP73 19-238 limits assumed): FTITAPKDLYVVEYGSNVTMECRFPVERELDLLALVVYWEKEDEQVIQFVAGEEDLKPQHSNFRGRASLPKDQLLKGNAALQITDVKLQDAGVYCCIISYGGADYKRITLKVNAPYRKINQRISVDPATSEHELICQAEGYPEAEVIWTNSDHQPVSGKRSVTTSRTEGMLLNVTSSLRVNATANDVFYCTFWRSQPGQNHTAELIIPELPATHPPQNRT
# Description: as §1
# [7] = target: T2, recombinant human CD86 (Sino Biological …); experiment: ELISA, plate coated with 1 ug/mL recombinant human CD86 (printed B7-2), anti-human IgG-HRP, OD450; antibody concentration not shown
# Description: as §2
# [8] = target: recombinant human CTLA4 (Sino Biological Inc.) (human, UniProt P16410 36-162); experiment: ELISA, plate coated with 1 ug/mL recombinant human CTLA4, anti-human IgG-HRP, OD450; antibody concentration not shown
# Chain of recombinant human CTLA4 (Sino Biological Inc.) (P16410 36-162 limits assumed): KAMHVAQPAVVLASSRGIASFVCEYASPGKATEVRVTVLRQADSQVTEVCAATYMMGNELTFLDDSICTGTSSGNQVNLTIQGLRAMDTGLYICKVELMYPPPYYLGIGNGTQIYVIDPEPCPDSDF
# Description: as §2
# [9] = target: T3, recombinant human B7-H2 (Sino …); experiment: ELISA, plate coated with 1 ug/mL recombinant human B7-H2, anti-human IgG-HRP, OD450; antibody concentration not shown
# Description: as §2
binder,measurement,setting,value
"chimeric anti-human PD-L1 monoclonal antibody (antibody, human IgG1, kappa, V domains shown, expressed in ExpiCHO cells; also called Chimeric mAb; Chimeric antibody) VH: EVQLQQSGAELVKPGASVKLSCTASGFNIEDTYIHWVMQRPEQGLEWIGRIDPANGNTKYDPKFQGKATITADTSSNTAYLQLSSLTSEDTAVYYCGRGLGAWFAYWGQGTLVTVSA VL: DIVMTQSHKVMSTSVGDRVTITCKASQDVHTAVAWIHQKPGQSPKLLIYSASNRYTGVPDRFTGSGSGTDFTFTISSVQAEDLAVYYCQQHYITPLTFGAGTTLELKR",koff,[1],0.000531 s⁻¹
same,binding result,[2],no binding (tested: about 20 nM (last point on the log axis))
same,binding result,[3],no binding
same,IC50,[4],1.08 nM
same,binding result,[5],no binding
same,binding result,[6],no binding (tested: about 20 nM (last point on the log axis))
same,binding result,[7],no binding
same,binding result,[8],no binding
same,binding result,[9],no binding
